From US11491212

Tests used:
[1] = target: Factor X, P00742
[2] = target: Factor X (FX), P00742
[3] = target: Factor X (FX), active site titrated and DFP/EGR-cmk treated zymogen, P00742
[4] = target: Factor VIIIa (FVIIIa), P00451
[5] = target: plasma purified human AT-III (antithrombin III), in complex with low molecular weight heparin

Factor X (FX), P00742, sequence (P00742 whole entry, looked up): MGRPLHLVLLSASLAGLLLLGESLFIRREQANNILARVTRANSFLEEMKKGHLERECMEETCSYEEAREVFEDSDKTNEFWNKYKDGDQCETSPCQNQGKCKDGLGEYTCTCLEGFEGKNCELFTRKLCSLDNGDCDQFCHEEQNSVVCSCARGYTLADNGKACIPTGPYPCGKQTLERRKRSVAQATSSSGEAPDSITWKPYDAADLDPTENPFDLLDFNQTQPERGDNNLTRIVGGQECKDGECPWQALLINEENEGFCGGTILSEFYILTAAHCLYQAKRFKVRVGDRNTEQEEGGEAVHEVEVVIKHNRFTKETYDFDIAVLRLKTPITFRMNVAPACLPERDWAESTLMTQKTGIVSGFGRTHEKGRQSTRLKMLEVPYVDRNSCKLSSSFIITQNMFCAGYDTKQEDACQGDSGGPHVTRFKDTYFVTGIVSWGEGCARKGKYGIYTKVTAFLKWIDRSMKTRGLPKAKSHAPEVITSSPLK
Factor X, P00742, sequence (P00742 whole entry, looked up): as above
Factor X (FX), active site titrated and DFP/EGR-cmk treated zymogen, P00742, sequence (P00742 whole entry, looked up): as above
Factor VIIIa (FVIIIa), P00451, sequence (P00451 other isoform, or with tags, fused parts or gaps): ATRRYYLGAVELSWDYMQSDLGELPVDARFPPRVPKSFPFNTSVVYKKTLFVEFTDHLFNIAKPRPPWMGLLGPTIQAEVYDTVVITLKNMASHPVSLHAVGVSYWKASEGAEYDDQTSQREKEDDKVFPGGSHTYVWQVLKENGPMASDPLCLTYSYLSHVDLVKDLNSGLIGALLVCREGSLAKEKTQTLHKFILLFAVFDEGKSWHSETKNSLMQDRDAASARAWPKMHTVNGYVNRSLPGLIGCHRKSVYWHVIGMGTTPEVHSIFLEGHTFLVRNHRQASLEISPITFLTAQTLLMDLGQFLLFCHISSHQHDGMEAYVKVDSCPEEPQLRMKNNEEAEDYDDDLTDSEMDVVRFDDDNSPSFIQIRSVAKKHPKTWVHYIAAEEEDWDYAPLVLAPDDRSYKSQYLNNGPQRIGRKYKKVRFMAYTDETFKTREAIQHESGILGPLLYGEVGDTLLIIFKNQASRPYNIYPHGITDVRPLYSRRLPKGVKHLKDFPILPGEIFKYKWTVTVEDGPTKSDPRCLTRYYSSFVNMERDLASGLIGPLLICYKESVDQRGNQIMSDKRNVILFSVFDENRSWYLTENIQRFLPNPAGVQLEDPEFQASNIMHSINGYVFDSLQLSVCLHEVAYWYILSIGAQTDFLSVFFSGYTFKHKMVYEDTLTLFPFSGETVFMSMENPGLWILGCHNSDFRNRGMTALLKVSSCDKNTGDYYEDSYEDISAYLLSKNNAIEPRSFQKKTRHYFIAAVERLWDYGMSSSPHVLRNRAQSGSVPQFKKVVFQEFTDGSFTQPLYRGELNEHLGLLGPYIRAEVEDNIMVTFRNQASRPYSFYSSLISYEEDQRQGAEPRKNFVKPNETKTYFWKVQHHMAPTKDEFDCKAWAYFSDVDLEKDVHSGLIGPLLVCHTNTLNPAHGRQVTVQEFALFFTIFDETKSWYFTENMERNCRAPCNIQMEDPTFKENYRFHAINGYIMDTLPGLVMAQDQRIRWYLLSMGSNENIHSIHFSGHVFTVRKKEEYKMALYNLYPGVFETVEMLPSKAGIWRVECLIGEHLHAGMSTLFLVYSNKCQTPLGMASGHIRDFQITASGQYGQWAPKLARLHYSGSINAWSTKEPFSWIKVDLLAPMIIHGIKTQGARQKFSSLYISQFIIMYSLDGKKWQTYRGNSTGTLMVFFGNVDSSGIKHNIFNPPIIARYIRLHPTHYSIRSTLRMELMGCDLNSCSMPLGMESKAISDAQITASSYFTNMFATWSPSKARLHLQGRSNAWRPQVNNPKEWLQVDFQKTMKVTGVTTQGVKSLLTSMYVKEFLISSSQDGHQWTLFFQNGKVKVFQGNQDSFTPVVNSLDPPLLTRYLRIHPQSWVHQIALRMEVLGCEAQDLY

B1: FIXa-K247N/N249S/R338E/T343R/R403E (protein)
chain 1: not shown
chain 2: not shown
With B1 the KM [1] was 0.0263 µM, the kcat [2] was 14.6 s⁻¹ and the “catalytic activity (kcat/KM for activation of FX)” value (shortened to “catalytic activity”) [3] was “improved activity when combined with other mutations”.

B2: FIXa-K247N/N249S/R318Y/R338E/T343R/R403E/E410N (protein)
chain 1: not shown
chain 2: not shown
B2 was tested, and the kcat/KM [1] was 3.8e+08 M⁻¹ s⁻¹ and the “catalytic activity” value [3] was “improved activity when combined with other mutations”.

B3: FIXa-R318Y/R338E/T343R/E410N (protein)
chain 1: not shown
chain 2: not shown
With B3 the kcat/KM [1] was 3.4e+08 M⁻¹ s⁻¹, the KM [2] was 0.0164 µM and the “catalytic activity” value [3] was “displayed some of the greatest increases in catalytic activity”.

B4: FIXa-R318Y/R338E/E410N (protein)
chain 1: not shown
chain 2: not shown
In the case of B4, the “catalytic activity” value [3] is reported as “displayed some of the greatest increases in catalytic activity”.

B5: FIX of SEQ ID NO:394, with the replacements R318Y/R338E/T343R (activated form, FIXa) (protein)
chain 1: not shown
chain 2: not shown
B5 was tested, and the FIX activity (mean) at 5 ng/mL FVIIIa, Test 1 [4] was 278, the FIX activity (mean) at 10 ng/mL FVIIIa, Test 2 [4] was 479 and the FIX activity (mean) at 15 ng/mL FVIIIa, Test 3 [4] was 622. The Fold increase after FVIIIa addition (5 ng/mL), Test 1 [4] was 225 fold, the Fold increase after FVIIIa addition (10 ng/mL), Test 2 [4] was 384 fold and the Fold increase after FVIIIa addition (15 ng/mL), Test 3 [4] was 486 fold. The Ratio (CB2679d vs BeneFIX) of FIX activity at 5 ng/mL FVIIIa [4] was 2, the Ratio (CB2679d vs BeneFIX) of FIX activity at 10 ng/mL FVIIIa [4] was 2 and the Ratio (CB2679d vs BeneFIX) of FIX activity at 15 ng/mL FVIIIa [4] was 2. The Cofactor-Dependent Indirect kcat/KM (M-1s-1), FX activation [2] was 1.2e+08 M⁻¹ s⁻¹, the Fold Increase over BeneFIX FIX (kcat/KM, FX activation) [2] was 2.8 fold and the Pro-coagulant Activity, Fold Change (in vitro) [2] was 2.8 fold.

B6: FIXa-K228N/K247N/N249S (protein)
chain 1: not shown
chain 2: not shown
In the case of B6, the “% of WT kcat/KM (against Catalyst Biosciences WT FIXa)” value [2] is reported as 83%, the kcat/KM for activation of FX by FIXa in the Xase complex (FVIIIa, PC/PS vesicles, Ca2+), fluorogenic Spectrafluor FXa read-out [2] is reported as 3.8e+07 M⁻¹ s⁻¹ and the “catalytic activity” value [3] is reported as “demonstrated close to wild-type activity”.

B7: FIXa-R318Y/R338E/T343R (activated CB 2679d, FIX of SEQ ID NO:394) (protein)
chain 1: not shown
chain 2: not shown
In the case of B7, the “catalytic efficiency for the activation of FX” value [3] is reported as “approximately 3-fold enhanced catalytic efficiency for the activation of FX”.

B8: FIXa-K293A/R338A/R403A (protein)
chain 1: not shown
chain 2: not shown
B8 was tested, and the KM of FX activation by FIXa in the Xase complex (FVIIIa, PC/PS vesicles, Ca2+); fluorogenic Spectrafluor FXa assay [1] was 0.0654 µM, the K0.5-mut/K0.5-wt (against Catalyst Biosciences WT FIXa), AT-III/LMWH [5] was 16.9 fold and the KM [2] was 0.0654 µM.
